{"source": "patent US5866538A", "about": "“Insulin preparations containing NaCl” (Novo Nordisk A/S, priority 1996, dated 1999)", "key": {"[1]": {"test": "Stability of Asp^B28 human insulin solutions with varying Zn, NaCl and pH (Example I)", "format": "physicochemical", "details": "4 weeks at 37° C.", "method": "Solutions containing 100 U/ml Asp^B28 human insulin, 2.6 mg/ml phenol, 16 mg/ml glycerol and varying amounts of Zn and sodium chloride were prepared. The pH was varied in the range of 7.2 to 7.5."}, "[2]": {"test": "Stability tests of Asp^B28 human insulin preparations in Penfill cartridges, varying NaCl (Example II)", "format": "physicochemical", "details": "phosphate 13.5 mM, 19.6 μg Zn/100 U insulin, pH 7.4", "method": "370.4 mg AspB28 human insulin was dissolved in water by adding 1.6 ml 0.2N HCl and 49 μl zinc chloride solution (40 mg Zn/ml). 40 g of a solution containing 40 mg/ml glycerol, 3.75 mg/g phenol and 4.30 mg/g m-cresol was added to the insulin solution while mixing. 20 g of a solution containing a) 12.0 mg/g disodium phosphate dihydrate+5 μl/g 2N sodium hydroxide, b) 12.0 mg/g disodium phosphate dihydrate+5 μl/g 2N sodium hydroxide+5 mg/g sodium chloride or c) 12.0 mg/g disodium phosphate dihydrate+5 μl/g 2N sodium hydroxide+10 mg/g sodium chloride was added while mixing. pH was adjusted to pH 7.40±0.05 and water added up to 100 ml. The Asp^B28 Human insulin preparations were introduced into Penfill® cartridges and subjected to stability tests at 25° C. and 37° C. The stability data obtained at the two different temperatures and at a phosphate concentration of 13.5 mM, 19.6 μg Zn/100 U insulin and pH=7.4 are summarized in Table 2."}, "[3]": {"details": "13.1 μg Zn/100 U insulin, NaCl 0 mM, pH 7.2"}, "[4]": {"details": "13.1 μg Zn/100 U insulin, NaCl 0 mM, pH 7.5"}, "[5]": {"details": "13.1 μg Zn/100 U insulin, NaCl 5 mM, pH 7.2"}, "[6]": {"details": "13.1 μg Zn/100 U insulin, NaCl 5 mM, pH 7.5"}, "[7]": {"details": "13.1 μg Zn/100 U insulin, NaCl 20 mM, pH 7.2"}, "[8]": {"details": "13.1 μg Zn/100 U insulin, NaCl 20 mM, pH 7.5"}, "[9]": {"details": "16.3 μg Zn/100 U insulin, NaCl 0 mM, pH 7.2"}, "[10]": {"details": "16.3 μg Zn/100 U insulin, NaCl 0 mM, pH 7.4"}, "[11]": {"details": "16.3 μg Zn/100 U insulin, NaCl 5 mM, pH 7.2"}, "[12]": {"details": "16.3 μg Zn/100 U insulin, NaCl 5 mM, pH 7.5"}, "[13]": {"details": "16.3 μg Zn/100 U insulin, NaCl 20 mM, pH 7.2"}, "[14]": {"details": "16.3 μg Zn/100 U insulin, NaCl 20 mM, pH 7.5"}, "[15]": {"details": "19.6 μg Zn/100 U insulin, NaCl 0 mM, pH 7.2"}, "[16]": {"details": "19.6 μg Zn/100 U insulin, NaCl 0 mM, pH 7.5"}, "[17]": {"details": "19.6 μg Zn/100 U insulin, NaCl 5 mM, pH 7.2"}, "[18]": {"details": "19.6 μg Zn/100 U insulin, NaCl 5 mM, pH 7.5"}, "[19]": {"details": "19.6 μg Zn/100 U insulin, NaCl 20 mM, pH 7.2"}, "[20]": {"details": "19.6 μg Zn/100 U insulin, NaCl 20 mM, pH 7.5"}, "[21]": {"details": "22.8 μg Zn/100 U insulin, NaCl 0 mM, pH 7.2"}, "[22]": {"details": "22.8 μg Zn/100 U insulin, NaCl 0 mM, pH 7.5"}, "[23]": {"details": "22.8 μg Zn/100 U insulin, NaCl 5 mM, pH 7.2"}, "[24]": {"details": "22.8 μg Zn/100 U insulin, NaCl 5 mM, pH 7.5"}, "[25]": {"details": "22.8 μg Zn/100 U insulin, NaCl 20 mM, pH 7.2"}, "[26]": {"details": "22.8 μg Zn/100 U insulin, NaCl 20 mM, pH 7.5"}, "[27]": {"details": "8 months at 25° C., NaCl added 0 mM, total conc. of Cl^- 4.4"}, "[28]": {"details": "8 months at 25° C., NaCl added 17 mM, total conc. of Cl^- 20.8"}, "[29]": {"details": "8 months at 25° C., NaCl added 34 mM, total conc. of Cl^- 37.8"}, "[30]": {"details": "8 weeks at 37° C., NaCl added 0 mM, total conc. of Cl^- 4.4"}, "[31]": {"details": "8 weeks at 37° C., NaCl added 17 mM, total conc. of Cl^- 20.8"}, "[32]": {"details": "8 weeks at 37° C., NaCl added 34 mM, total conc. of Cl^- 37.8"}}}
{"substance": "Asp^B28 human insulin", "values": [{"measurement": "Asp^B28 Des-amido insulins formed", "setting": "[1]; [3]", "value": 3.44, "unit": "%"}, {"measurement": "Di- & polymers formed", "setting": "[1]; [3]", "value": 1.35, "unit": "%"}, {"measurement": "Asp^B28 Des-amido insulins formed", "setting": "[1]; [4]", "value": 3.57, "unit": "%"}, {"measurement": "Di- & polymers formed", "setting": "[1]; [4]", "value": 1.36, "unit": "%"}, {"measurement": "Asp^B28 Des-amido insulins formed", "setting": "[1]; [5]", "value": 3.48, "unit": "%"}, {"measurement": "Di- & polymers formed", "setting": "[1]; [5]", "value": 1.53, "unit": "%"}, {"measurement": "Asp^B28 Des-amido insulins formed", "setting": "[1]; [6]", "value": 3.31, "unit": "%"}, {"measurement": "Di- & polymers formed", "setting": "[1]; [6]", "value": 1.49, "unit": "%"}, {"measurement": "Asp^B28 Des-amido insulins formed", "setting": "[1]; [7]", "value": 2.54, "unit": "%"}, {"measurement": "Di- & polymers formed", "setting": "[1]; [7]", "value": 1.72, "unit": "%"}, {"measurement": "Asp^B28 Des-amido insulins formed", "setting": "[1]; [8]", "value": 2.47, "unit": "%"}, {"measurement": "Di- & polymers formed", "setting": "[1]; [8]", "value": 1.26, "unit": "%"}, {"measurement": "Asp^B28 Des-amido insulins formed", "setting": "[1]; [9]", "value": 3.35, "unit": "%"}, {"measurement": "Di- & polymers formed", "setting": "[1]; [9]", "value": 1.44, "unit": "%"}, {"measurement": "Asp^B28 Des-amido insulins formed", "setting": "[1]; [10]", "value": 3.41, "unit": "%"}, {"measurement": "Di- & polymers formed", "setting": "[1]; [10]", "value": 1.46, "unit": "%"}, {"measurement": "Asp^B28 Des-amido insulins formed", "setting": "[1]; [11]", "value": 1.74, "unit": "%"}, {"measurement": "Di- & polymers formed", "setting": "[1]; [11]", "value": 0.95, "unit": "%"}, {"measurement": "Asp^B28 Des-amido insulins formed", "setting": "[1]; [12]", "value": 2.58, "unit": "%"}, {"measurement": "Di- & polymers formed", "setting": "[1]; [12]", "value": 1.38, "unit": "%"}, {"measurement": "Asp^B28 Des-amido insulins formed", "setting": "[1]; [13]", "value": 1.91, "unit": "%"}, {"measurement": "Di- & polymers formed", "setting": "[1]; [13]", "value": 1.05, "unit": "%"}, {"measurement": "Asp^B28 Des-amido insulins formed", "setting": "[1]; [14]", "value": 2.00, "unit": "%"}, {"measurement": "Di- & polymers formed", "setting": "[1]; [14]", "value": 1.31, "unit": "%"}, {"measurement": "Asp^B28 Des-amido insulins formed", "setting": "[1]; [15]", "value": 3.07, "unit": "%"}, {"measurement": "Di- & polymers formed", "setting": "[1]; [15]", "value": 1.57, "unit": "%"}, {"measurement": "Asp^B28 Des-amido insulins formed", "setting": "[1]; [16]", "value": 2.85, "unit": "%"}, {"measurement": "Di- & polymers formed", "setting": "[1]; [16]", "value": 1.80, "unit": "%"}, {"measurement": "Asp^B28 Des-amido insulins formed", "setting": "[1]; [17]", "value": 2.71, "unit": "%"}, {"measurement": "Di- & polymers formed", "setting": "[1]; [17]", "value": 1.36, "unit": "%"}, {"measurement": "Asp^B28 Des-amido insulins formed", "setting": "[1]; [18]", "value": 2.24, "unit": "%"}, {"measurement": "Di- & polymers formed", "setting": "[1]; [18]", "value": 1.46, "unit": "%"}, {"measurement": "Asp^B28 Des-amido insulins formed", "setting": "[1]; [19]", "value": 1.56, "unit": "%"}, {"measurement": "Di- & polymers formed", "setting": "[1]; [19]", "value": 1.15, "unit": "%"}, {"measurement": "Asp^B28 Des-amido insulins formed", "setting": "[1]; [20]", "value": 1.68, "unit": "%"}, {"measurement": "Di- & polymers formed", "setting": "[1]; [20]", "value": 1.13, "unit": "%"}, {"measurement": "Asp^B28 Des-amido insulins formed", "setting": "[1]; [21]", "value": 2.71, "unit": "%"}, {"measurement": "Di- & polymers formed", "setting": "[1]; [21]", "value": 2.52, "unit": "%"}, {"measurement": "Asp^B28 Des-amido insulins formed", "setting": "[1]; [22]", "value": 2.34, "unit": "%"}, {"measurement": "Di- & polymers formed", "setting": "[1]; [22]", "value": 1.45, "unit": "%"}, {"measurement": "Asp^B28 Des-amido insulins formed", "setting": "[1]; [23]", "value": 2.18, "unit": "%"}, {"measurement": "Di- & polymers formed", "setting": "[1]; [23]", "value": 1.95, "unit": "%"}, {"measurement": "Asp^B28 Des-amido insulins formed", "setting": "[1]; [24]", "value": 1.90, "unit": "%"}, {"measurement": "Di- & polymers formed", "setting": "[1]; [24]", "value": 1.19, "unit": "%"}, {"measurement": "Asp^B28 Des-amido insulins formed", "setting": "[1]; [25]", "value": 1.51, "unit": "%"}, {"measurement": "Di- & polymers formed", "setting": "[1]; [25]", "value": 1.05, "unit": "%"}, {"measurement": "Asp^B28 Des-amido insulins formed", "setting": "[1]; [26]", "value": 1.46, "unit": "%"}, {"measurement": "Di- & polymers formed", "setting": "[1]; [26]", "value": 1.09, "unit": "%"}, {"measurement": "Asp^B28 Des-amido insulins formed", "setting": "[2]; [27]", "value": 6.4, "unit": "%"}, {"measurement": "Di- & polymers formed", "setting": "[2]; [27]", "value": 1.0, "unit": "%"}, {"measurement": "Asp^B28 Des-amido insulins formed", "setting": "[2]; [28]", "value": 4.1, "unit": "%"}, {"measurement": "Di- & polymers formed", "setting": "[2]; [28]", "value": 0.8, "unit": "%"}, {"measurement": "Asp^B28 Des-amido insulins formed", "setting": "[2]; [29]", "value": 3.7, "unit": "%"}, {"measurement": "Di- & polymers formed", "setting": "[2]; [29]", "value": 0.8, "unit": "%"}, {"measurement": "Asp^B28 Des-amido insulins formed", "setting": "[2]; [30]", "value": 7.0, "unit": "%"}, {"measurement": "Di- & polymers formed", "setting": "[2]; [30]", "value": 1.86, "unit": "%"}, {"measurement": "Asp^B28 Des-amido insulins formed", "setting": "[2]; [31]", "value": 4.2, "unit": "%"}, {"measurement": "Di- & polymers formed", "setting": "[2]; [31]", "value": 1.29, "unit": "%"}, {"measurement": "Asp^B28 Des-amido insulins formed", "setting": "[2]; [32]", "value": 3.5, "unit": "%"}, {"measurement": "Di- & polymers formed", "setting": "[2]; [32]", "value": 1.07, "unit": "%"}]}
